Results as given in the supplement of paper PMC9233669.
Variants at the floor of the assay were thinned out.

What was measured:
biotinyl-Trp-oxazolone = assay: self-aminoacylation, catalytic enhancement (BWO) (fold over background); higher = more active; k-Seq, kA / k0A0; sequences stand for … in GGGAAUGGAUCCACAUCUACGAAUUC…UUCACUGCAGACUUGACGAAGCUG
How it was run: (§1)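 The uncatalyzed rate is the low-activity peak of a bimodal Gaussian fit, and catalytic enhancement is median kA divided by it. The kA values came from pseudo-first-order fits, with 1000 bootstraps, of per-sequence fraction reacted measured by streptavidin capture, triplicate qPCR and Illumina sequencing. Mutagenized RNA pools with a 21-nt variable region (0.43 μM) were reacted with each biotinyl-aminoacyl-oxazolone at 2–1250 μM in 50 μL HEPES/NaCl/KCl/MgCl2/CaCl2 buffer with 5% acetonitrile, pH 6.9–7.0, for 90 minutes at room temperature.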

biotinyl-Phe-oxazolone = assay: self-aminoacylation, catalytic enhancement (BFO) (fold over background); higher = more active; k-Seq, kA / k0A0; sequences stand for … in GGGAAUGGAUCCACAUCUACGAAUUC…UUCACUGCAGACUUGACGAAGCUG
How it was run: as §1

Row | Sequence | self-aminoacylation (biotinyl-Trp-oxazolone) | self-aminoacylation (biotinyl-Phe-oxazolone)
1 | AAGUUUGCCAAUUGUCGCAAG [Fam3.1 aminoacylation ribozyme variant] | 2.15 | 2.77
2 | ACAAACUUCAAGCAAUCGGUC [Fam1B.1 aminoacylation ribozyme variant] | 9.7 | 15
3 | ACACACUUCAAGCAAUCGGUC [Fam1B.1 aminoacylation ribozyme variant] | 13.1 | 27.1
4 | ACGUUUGCUAAUAGUCGCAAG [Fam3.1 aminoacylation ribozyme variant] | 3.66 | 9.06
5 | AGGUGUGCUAAUAGUCGCAAG [Fam3.1 aminoacylation ribozyme variant] | 2.52 | 5.87
6 | AUACAUCAAACAAUCGGUCUG [Fam1A.1 aminoacylation ribozyme variant] | 2.68 | 4.05
7 | AUACUUCAAACAAUCGGUCUG [Fam1A.1 aminoacylation ribozyme variant] | 9.11 | 14.7
8 | AUGUUUGCUAAUAGUCGCAAG [Fam3.1 aminoacylation ribozyme variant] | 4.22 | 12.9
9 | AUUCACCUCGGUCAUCAGGUG [Fam2.2 aminoacylation ribozyme variant] | 2.02 | 4.3
10 | AUUGACCUAGGUCAUCGGGAG [Fam2.2 aminoacylation ribozyme variant] | 2.04 | 3.29
11 | CAAAUUCAAACAAUCGGUCUG [Fam1A.1 aminoacylation ribozyme variant] | 3.94 | 6.39
12 | CAACAUCAAACAAUCGGUCUG [Fam1A.1 aminoacylation ribozyme variant] | 3.73 | 7.46
13 | CAACCCUUCAAGCAAUCGGUC [Fam1B.1 aminoacylation ribozyme variant] | 2.72 | 2.9
14 | CAACUUCAAACAAUCGGUCCG [Fam1A.1 aminoacylation ribozyme variant] | 4.86 | 5.44
15 | CAACUUCAAACAAUCGGUCUC [Fam1A.1 aminoacylation ribozyme variant] | 37.7 | 75.3
16 | CCAAACUUCAACCAAUCGGUC [Fam1B.1 aminoacylation ribozyme variant] | 27.5 | 43.8

Row | Sequence | self-aminoacylation (biotinyl-Trp-oxazolone) | self-aminoacylation (biotinyl-Phe-oxazolone)
17 | CCAAACUUCAAGCAAUCGGUU [Fam1B.1 aminoacylation ribozyme variant] | 4.36 | 5.01
18 | CCACAAUUCAACCAAUCGGUC [Fam1B.1 aminoacylation ribozyme variant] | 5.9 | 6.75
19 | CCACACUUCAAAUAAUCGGUC [Fam1B.1 aminoacylation ribozyme variant] | 13.7 | 23.8
20 | CCACACUUCAAUCGAUCGGUC [Fam1B.1 aminoacylation ribozyme variant] | 2.43 | 2.48
21 | CCACACUUCAAUGAAUCGGUC [Fam1B.1 aminoacylation ribozyme variant] | 10.3 | 14.4
22 | CCACUUCAAACAAUCAGUCUG [Fam1A.1 aminoacylation ribozyme variant] | 10.1 | 29.2
23 | CCAGACUUCAAGUAAUCGGUC [Fam1B.1 aminoacylation ribozyme variant] | 8.35 | 11.5
24 | CCAUACUUCAACCAAUCGGUC [Fam1B.1 aminoacylation ribozyme variant] | 17.2 | 32.7
25 | CCAUACUUCAAUCAAUCGGUC [Fam1B.1 aminoacylation ribozyme variant] | 15.9 | 31.2
26 | CCCCAAUUCAAGCAAUCGGUC [Fam1B.1 aminoacylation ribozyme variant] | 7.09 | 7.89
27 | CCGCACUUCAAGAAAUCGGUC [Fam1B.1 aminoacylation ribozyme variant] | 10.3 | 12.2
28 | CCUCACUUCAAGAAAUCGGUC [Fam1B.1 aminoacylation ribozyme variant] | 7.71 | 11
29 | CCUCACUUCAAUCAAUCGGUC [Fam1B.1 aminoacylation ribozyme variant] | 17.9 | 39.5
30 | CGACUCCAAACAAUCGGUCUG [Fam1A.1 aminoacylation ribozyme variant] | 3.11 | 3.55
31 | CGAGUUCAAACAAUCGGUCUG [Fam1A.1 aminoacylation ribozyme variant] | 4.57 | 6.84
